Source: paper PMC5787837

How the values were obtained:
[1] = molecular target: commercial Protein A (Sigma-Aldrich) (Staphylococcus aureus) (UniProt P38507); experiment: QCM-D (quartz crystal microbalance with dissipation monitoring)
[2] = molecular target: HFBI–Protein A fusion protein (Trichoderma reesei | Staphylococcus aureus); experiment: QCM-D (quartz crystal microbalanc); conditions: scale: moles of rituximab per mole of immobilized HFBI–Protein A
[3] = molecular target: HFBII–Protein A fusion protein (Trichoderma reesei | Staphylococcus aureus); experiment: QCM-D (quartz crystal microbalanc); conditions: scale: moles of rituximab per mole of immobilized HFBII–Protein A

With rituximab (antibody) the stoichiometry N [1] was 1.2, the stoichiometry N [2] was 1.5 and the stoichiometry N [3] was 1.2.
